B1: Nrd1 CID [S. cerevisiae] / Sen1 NIM peptide, FAM-labelled [modified: 5,6-carboxyfluorescein (FAM) on the N-terminus; 5,6-carboxyfluorescein (FAM) on the N-terminus] [S. cerevisiae] (parent complex)
chain 1: MQQDDDFQNFVATLESFKDLKSGISGSRIKKLTTYALDHIDIESKIISLIIDYSRLCPDSHKLGSLYIIDSIGRAYLDETRSNSNSSSNKPGTCAHAINTLGEVIQELLSDAIAKSNQDHKEKIRMLLDIWDRSGLFQKSYLNAIRSKCFAMD
chain 2: DDDEDDYTPSIS

Variants of: B1
Test: fluorescence anisotropy (FA); parent: 1.2e+03 nM

With chain 1 I130A as the variant, how does the Kd read?
The Kd was 7.38 µM.

Reference: PMC7110113, “Termination of non‐coding transcription in yeast relies on both an RNA Pol II CTD interaction domain and a CTD‐mimicking region in Sen1” (The EMBO Journal, 2020)
